In patent publication US20240270846A1 (published 2024):
Substitutions are numbered along the chain they refer to. In names and notes the source's numbering stands.

B1: GLS3000 N53L one-arm antibody (antibody, human IgG1, kappa, L234A L235A, N297A, name in Kabat numbering)
light: DIVMTQSPLSLPVTPGEPASISCRSSQSLVHSNRNTYLHWYQQKPGQAPRLLIYKVSLRFSGVPDRFSGSGSGTDFTLKISRVEAEDVGVYYCGQGTQVPYTFGQGTKLEIKRTVAAPSVFIFPPSDEQLKSGTASVVCLLNNFYPREAKVQWKVDNALQSGNSQESVTEQDSKDSTYSLSSTLTLSKADYEKHKVYACEVTHQGLSSPVTKSFNRGEC
heavy: QVQLVESGGGVVQPGRSLRLSCAASGFTFSNAWMHWVRQAPGKGLEWVAQIKAKSNNYATYYAESVKGRFTISRDDSKNSLYLQMNSLKTEDTAVYYCRYVHYGAYYGVDAWGQGTTVTVSSASTKGPSVFPLAPSSKSTSGGTAALGCLVKDYFPEPVTVSWNSGALTSGVHTFPAVLQSSGLYSLSSVVTVPSSSLGTQTYICNVNHKPSNTKVDKKVEPKSCDKTHTCPPCPAPEAAGGPSVFLFPPKPKDTLMISRTPEVTCVVVDVSHEDPEVKFNWYVDGVEVHNAKTKPREEQYASTYRVVSVLTVLHQDWLNGKEYKCKVSNKALPAPIEKTISKAKGQPREPQVYTLPPSRCELTKNQVSLSCAVKGFYPSDIAVEWESNGQPENNYKTTPPVLDSDGSFFLVSKLTVDKSRWQQGNVFSCSVMHEALHNHYTQKSLSLSPDYKDDDDK
chain: EPKSSDKTHTCPPCPAPELLGGPSVFLFPPKPKDTLMISRTPEVTCVVVDVSHEDPEVKFNWYVDGVEVHNAKTKPREEQYNSTYRVVSVLTVLHQDWLNGKEYKCKVSNKALPAPIEKTISKAKGQPREPQVCTLPPSRDELTKNQVSLWCLVKGFYPSDIAVEWESNGQPENNYKTTPPVLDSDGSFFLYSKLTVDKSRWQQGNVFSCSVMHEALHNRYTQKSLSLSP
B2: GLS3000 N53M one-arm antibody (antibody, human IgG1, kappa, L234A L235A, N297A, name in Kabat numbering)
light: B1 light with L58M
heavy: B1 heavy
chain: B1 chain
B3: GLS3000 N53P one-arm antibody (antibody, human IgG1, kappa, L234A L235A, N297A, name in Kabat numbering)
light: B1 light with L58P
heavy: B1 heavy
chain: B1 chain
B4: GLS3000 N53Q one-arm antibody (antibody, human IgG1, kappa, L234A L235A, N297A, name in Kabat numbering)
light: B1 light with L58Q
heavy: B1 heavy
chain: B1 chain
B5: GLS3000 N53R one-arm antibody (antibody, human IgG1, kappa, L234A L235A, N297A, name in Kabat numbering)
light: B1 light with L58R
heavy: B1 heavy
chain: B1 chain
B6: GLS3000 N53S one-arm antibody (antibody, human IgG1, kappa, L234A L235A, N297A, name in Kabat numbering)
light: B1 light with L58S
heavy: B1 heavy
chain: B1 chain
B7: GLS3000 N53T one-arm antibody (antibody, human IgG1, kappa, L234A L235A, N297A, name in Kabat numbering)
light: B1 light with L58T
heavy: B1 heavy
chain: B1 chain
B8: GLS3000 N53V one-arm antibody (antibody, human IgG1, kappa, L234A L235A, N297A, name in Kabat numbering)
light: B1 light with L58V
heavy: B1 heavy
chain: B1 chain
B9: GLS3000 N53W one-arm antibody (antibody, human IgG1, kappa, L234A L235A, N297A, name in Kabat numbering)
light: B1 light with L58W
heavy: B1 heavy
chain: B1 chain
B10: GLS3000 N53Y one-arm antibody (antibody, human IgG1, kappa, L234A L235A, N297A, name in Kabat numbering)
light: B1 light with L58Y
heavy: B1 heavy
chain: B1 chain
B11: GLS3000 P95A one-arm antibody (antibody, human IgG1, kappa, L234A L235A, N297A, name in Kabat numbering)
light: B1 light with L58N, P100A
heavy: B1 heavy
chain: B1 chain
B12: GLS3000 P95D one-arm antibody (antibody, human IgG1, kappa, L234A L235A, N297A, name in Kabat numbering)
light: B1 light with L58N, P100D
heavy: B1 heavy
chain: B1 chain
B13: GLS3000 P95E one-arm antibody (antibody, human IgG1, kappa, L234A L235A, N297A, name in Kabat numbering)
light: B1 light with L58N, P100E
heavy: B1 heavy
chain: B1 chain
B14: GLS3000 P95G one-arm antibody (antibody, human IgG1, kappa, L234A L235A, N297A, name in Kabat numbering)
light: B1 light with L58N, P100G
heavy: B1 heavy
chain: B1 chain
B15: GLS3000 P95L one-arm antibody (antibody, human IgG1, kappa, L234A L235A, N297A, name in Kabat numbering)
light: B1 light with L58N, P100L
heavy: B1 heavy
chain: B1 chain
B16: GLS3000 P95S one-arm antibody (antibody, human IgG1, kappa, L234A L235A, N297A, name in Kabat numbering)
light: B1 light with L58N, P100S
heavy: B1 heavy
chain: B1 chain
B17: GLS3000 Q90A one-arm antibody (antibody, human IgG1, kappa, L234A L235A, N297A, name in Kabat numbering)
light: B1 light with L58N, Q95A
heavy: B1 heavy
chain: B1 chain
B18: GLS3000 Q90D one-arm antibody (antibody, human IgG1, kappa, L234A L235A, N297A, name in Kabat numbering)
light: B1 light with L58N, Q95D
heavy: B1 heavy
chain: B1 chain
B19: GLS3000 Q90E one-arm antibody (antibody, human IgG1, kappa, L234A L235A, N297A, name in Kabat numbering)
light: B1 light with L58N, Q95E
heavy: B1 heavy
chain: B1 chain
B20: GLS3000 Q90P one-arm antibody (antibody, human IgG1, kappa, L234A L235A, N297A, name in Kabat numbering)
light: B1 light with L58N, Q95P
heavy: B1 heavy
chain: B1 chain
B21: GLS3000 Q90S one-arm antibody (antibody, human IgG1, kappa, L234A L235A, N297A, name in Kabat numbering)
light: B1 light with L58N, Q95S
heavy: B1 heavy
chain: B1 chain
B22: GLS3000 Q93A one-arm antibody (antibody, human IgG1, kappa, L234A L235A, N297A, name in Kabat numbering)
light: B1 light with L58N, Q98A
heavy: B1 heavy
chain: B1 chain
B23: GLS3000 Q93D one-arm antibody (antibody, human IgG1, kappa, L234A L235A, N297A, name in Kabat numbering)
light: B1 light with L58N, Q98D
heavy: B1 heavy
chain: B1 chain
B24: GLS3000 Q93E one-arm antibody (antibody, human IgG1, kappa, L234A L235A, N297A, name in Kabat numbering)
light: B1 light with L58N, Q98E
heavy: B1 heavy
chain: B1 chain
B25: GLS3000 Q93P one-arm antibody (antibody, human IgG1, kappa, L234A L235A, N297A, name in Kabat numbering)
light: B1 light with L58N, Q98P
heavy: B1 heavy
chain: B1 chain
B26: GLS3000 Q93R one-arm antibody (antibody, human IgG1, kappa, L234A L235A, N297A, name in Kabat numbering)
light: B1 light with L58N, Q98R
heavy: B1 heavy
chain: B1 chain
B27: GLS3000 Q93S one-arm antibody (antibody, human IgG1, kappa, L234A L235A, N297A, name in Kabat numbering)
light: B1 light with L58N, Q98S
heavy: B1 heavy
chain: B1 chain
B28: GLS3000 R54E one-arm antibody (antibody, human IgG1, kappa, L234A L235A, N297A, name in Kabat numbering)
light: B1 light with L58N, R59E
heavy: B1 heavy
chain: B1 chain
B29: GLS3000 R54G one-arm antibody (antibody, human IgG1, kappa, L234A L235A, N297A, name in Kabat numbering)
light: B1 light with L58N, R59G
heavy: B1 heavy
chain: B1 chain
B30: GLS3000 R54P one-arm antibody (antibody, human IgG1, kappa, L234A L235A, N297A, name in Kabat numbering)
light: B1 light with L58N, R59P
heavy: B1 heavy
chain: B1 chain
B31: GLS3000 R54Q one-arm antibody (antibody, human IgG1, kappa, L234A L235A, N297A, name in Kabat numbering)
light: B1 light with L58N, R59Q
heavy: B1 heavy
chain: B1 chain
B32: GLS3000 R54S one-arm antibody (antibody, human IgG1, kappa, L234A L235A, N297A, name in Kabat numbering)
light: B1 light with L58N, R59S
heavy: B1 heavy
chain: B1 chain
B33: GLS3000 R54T one-arm antibody (antibody, human IgG1, kappa, L234A L235A, N297A, name in Kabat numbering)
light: B1 light with L58N, R59T
heavy: B1 heavy
chain: B1 chain

Target: T1, CD3 epsilon homodimer protein (UniProt P07766 23-126)
T1 construct: Construct of the homodimer is not described; also called CD3 (CD3 epsilon)
T1 sequence (P07766 23-126): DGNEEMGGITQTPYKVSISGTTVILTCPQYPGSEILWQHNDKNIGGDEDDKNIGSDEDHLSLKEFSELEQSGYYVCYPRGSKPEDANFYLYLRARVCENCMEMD
Test: SPR Biacore T200, CD3e homodimer on chip, antibody analyte;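 note: CD3 epsilon homodimer amine-coupled on CM4 sensor chip, antibodies injected as analyte at 25 °C in HBS-EP+, ratio ≥0.8 taken as binding retained versus unaltered parent antibody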

Binder	ratio of amounts bound (altered form/GLS3000)
B1	0.56
B2	0.62
B3	0.81
B4	0.77
B5	1.58
B6	0.69
B7	0.56
B8	0.56
B9	0.81
B10	0.67
B11	0.63
B12	0.24
B13	0.39
B14	0.37
B15	0.24
B16	0.43
B17	0.5

Binder	ratio of amounts bound (altered form/GLS3000)
B18	0.19
B19	0.86
B20	0.27
B21	0.73
B22	0.85
B23	0.72
B24	0.75
B25	0.25
B26	1.13
B27	0.96
B28	0.58
B29	0.67
B30	0.84
B31	0.68
B32	0.79
B33	0.65
